Results on 1 molecule are retold here after PMC7749166 (Communications Biology, 2020).

For assay [1], the system named is C5aR with mutations Y11F and Y14F. The following applies: cited from earlier work. An excerpt: In line with our results, intrinsic binding energies have been previously described for intramolecular binding events inv ...
For a further assay, the system named is C5aR extracellular side. The experiment in a line: AFM affinity imaging with C5a tip: specificity and receptor height. To be noted: free C5a in solution. Type of assay: binding, human. The protocol:
(§1) The reconstituted C5aR sample solution (either wt-C5aR or mutants) was 20-fold diluted in fusion buffer solution (20 mM HEPES, 300 mM NaCl, and 25 mM MgCl2) and adsorbed on freshly cleaved mica for 15 min. After rinsing with imaging buffer (20 mM HEPES and 300 mM NaCl) the sample was transferred to the AFM.
Rectangular Si3N4 AFM cantilevers with silicon tips (BioLever mini, Bruker) were first cleaned with chloroform for 10 min, rinsed with ethanol, N2 dried, and then cleaned for 15 min in an ultraviolet radiation and ozone cleaner (UV-O, Jetlight, CA, USA). For the aminofunctionalization, the cantilevers were immersed in an ethanolamine solution (3.3 g ethanolamine in 6.6 ml DMSO) overnight and then rinsed in DMSO (3 × 1 min) and ethanol (3 × 1 min), followed by N2 drying. This was followed by the N-hydroxysuccinimide (NHS)-PEG27-acetal linker attachment. […]
In FD-based AFM measurements, the AFM cantilever is oscillated in a sinusoidal manner well below its resonance frequency, while the sample surface is contoured pixel-by-pixel. For each approach–retraction cycle of the oscillating cantilever, a force–distance curve is recorded. […] Adhesion maps were recorded using a scan rate of 0.2 Hz and 256 × 256 pixels. […]
Several control experiments were designed to ensure that the measured interactions were indeed specific and the functionalization of the AFM tip successful. […]

The target of assay [2] is T1, human C5aR (C5aR^WT) (Homo sapiens, UniProt P21730).
T1 construct: Flag (N); made in house; host or cells: HEK-293S GnTI- cells (BacMam baculovirus)
T1 sequence (P21730 1-350): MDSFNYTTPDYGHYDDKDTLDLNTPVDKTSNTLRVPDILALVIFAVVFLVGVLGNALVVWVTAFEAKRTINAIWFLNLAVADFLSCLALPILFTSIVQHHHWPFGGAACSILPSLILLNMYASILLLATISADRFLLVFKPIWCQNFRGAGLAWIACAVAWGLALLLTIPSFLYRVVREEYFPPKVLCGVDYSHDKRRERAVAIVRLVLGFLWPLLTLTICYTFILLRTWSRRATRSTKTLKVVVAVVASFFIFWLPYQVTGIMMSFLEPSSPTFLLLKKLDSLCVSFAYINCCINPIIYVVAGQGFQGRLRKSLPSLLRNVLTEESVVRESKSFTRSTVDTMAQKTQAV
The experiment in a line: FD-/FV-based AFM dynamic force spectroscopy (FNdY model) of ligand-functionalized tip vs wild-type C5aR. The format is binding. The following applies: FNdY fit. The protocol:
as §1
(§2) Rectangular Si3N4 AFM cantilevers with silicon tips (BioLever mini, Bruker) were first cleaned with chloroform for 10 min, rinsed with ethanol, N2 dried, and then cleaned for 15 min in an ultraviolet radiation and ozone cleaner (UV-O, Jetlight, CA, USA). For the aminofunctionalization, the cantilevers were immersed in an ethanolamine solution (3.3 g ethanolamine in 6.6 ml DMSO) overnight and then rinsed in DMSO (3 × 1 min) and ethanol (3 × 1 min), followed by N2 drying. This was followed by the N-hydroxysuccinimide (NHS)-PEG27-acetal linker attachment. A 1 mg portion of the NHS-PEG27-acetal linker (JKU, Linz, Austria) was diluted in 0.5 ml chloroform with 30 µl triethylamine and the cantilevers were immersed in this solution for 2 h. After three rinsing steps of 10 min in chloroform and N2 drying, the cantilevers were immersed in a 1% citric acid solution for 10 min, rinsed with pure water (3 × 5 min), and dried with N2 once more. tris-NTA-derivatized AFM cantilevers were obtained by pipetting 100 µl of a 100 µM tris-N-nitrilotriacetic amine trifluoroacetate (Toronto Research Chemicals, Canada) (tris-NTA) solution onto the cantilevers, followed by the addition of 2 μl of a freshly prepared 1 M NaCNBH3 solution. The cantilevers were incubated for 1 h, then 5 μl of a 1 M ethanolamine solution pH 8.0 was added for 10 min to quench the reaction. tris-NTA cantilevers were further used to obtain C5a-derivatized tips. For this purpose, 100 μl of a 1 μM C5a protein solution was premixed with 5 μl NiCl2 5 mM and the mixture was pipetted onto the tris-NTA cantilevers. After 2 h of incubation time, the cantilevers were washed in HEPES buffer 3 × 5 min.
(§3) (JKU, Linz, Austria) dissolved in 0.5 ml of chloroform with 30 μl of triethylamine, then washed with chloroform and dried with N2. […] After 3 h of reaction, cantilevers were washed with PBS 3 × 5 min.
(§4) AFM experiments were performed with a Multimode 8 AFM equipped with a Nanoscope V controller (Bruker, Santa Barbara, CA, USA) operated in “PeakForce Tapping QNM mode”. All measurements were carried out in imaging buffer at room temperature (≈24 °C). For the high-resolution characterization of C5aR topographical features, triangular Si3N4 cantilevers (Scanasyst-Fluid+, Bruker) with a sharpened tetrahedral silicon tip of ≈2 nm radius, nominal spring constants of 0.35 N m^−1, and resonance frequency in liquid of ≈75 kHz were used. Multiparametric FD-based AFM measurements with derivatized tips were carried out using BioLever mini cantilevers (Bruker, Santa Barbara) having nominal spring constants of 0.1 N m^−1 and resonance frequency in liquid of ≈25 kHz. The spring constant was calibrated at the end of each experiment for all cantilevers used in this study using the thermal noise method.
(§5) In FD-based AFM measurements, the AFM cantilever is oscillated in a sinusoidal manner well below its resonance frequency, while the sample surface is contoured pixel-by-pixel. For each approach–retraction cycle of the oscillating cantilever, a force–distance curve is recorded. Multiparametric FD-based AFM height, Young’s modulus, and adhesion maps are then obtained from a pixel-by-pixel reconstruction of the acquired data. Overview FD-based AFM maps were acquired by scanning the sample at 1 Hz and a resolution of 512 × 512 pixels, using a force setpoint of ≈150 pN, a 2 kHz oscillation frequency, and a peak-to-peak oscillation amplitude of 100 nm. Adhesion maps were recorded using a scan rate of 0.2 Hz and 256 × 256 pixels. The functionalized AFM cantilever was oscillated at 0.25 kHz with peak-to-peak oscillation amplitudes of 100 nm.

The subject of assay [3] is human C5aR (C5aR^WT). Described as above. Type of assay: binding. The following applies: sum of C5aR + PMX53 and C5aR∆Tyr values. The protocol:
as §1, §2, §3, §4, §5

The next assay concerns C5aR2. To be noted: cited from earlier work. An excerpt:
Our mechanistic insights into the C5a binding process to C5aR could offer a new framework to a better understanding or the intriguing functional divergence between the two C5a receptors and could potentially allow delinea ...

Where [4] appears, read: C5a tip vs C5aR^WT incubated with PMX53 (effector site blocked; probes binding site), ± s.e.m.

B1: C5a: C5a, a large 74-amino acid glycoprotein; endogenous ligand of C5aR (His6-tag at N-terminal end for AFM tips) (protein)
chain: TLQKKIEEIAAKYKHSVVKKCCYDGACVNNDETCEQRAARISLGPRCIKAFTECCVVASQLRANISHKDMQLGR
modifications: left off: His6, N-terminal, kept
For the molecule B1, in assay [1], the “signaling of C5aR induced by C5a upon Y11F and Y14F mutations” value was “could almost abolish the signaling of C5aR”. The “binding probability of C5a tip after blocking with free C5a” value in the assay with C5aR extracellular side is given as “significantly reduces the binding probability”. Further, the “residence time τ0.5” value with human C5aR (C5aR^WT) [2] (C5a tip vs C5aR^WT incubated with PMX53 (effector site blocked; probes binding site)) is 0.2 ms. Moreover, in the assay with human C5aR (C5aR^WT) [2] (setting [4]), the “equilibrium force Feq” value came out at 29 ± 4 pN and the “free energy ΔGbu” value is -3.9 ± 1.8 kcal/mol. Besides, the “binding equilibrium free energy ΔGbu” value with human C5aR (C5aR^WT) [2] (± s.e.m., ligand-derivatized AFM tip, 20 mM HEPES, 300 mM NaCl, ≈24 °C) is -13.6 ± 4.1 kcal/mol. In the assay with human C5aR (C5aR^WT) [2] (± s.e.m., ligand-derivatized AFM tip, C5aR in DOPC/CHS liposomes on mica, 20 mM HEPES, 300 mM NaCl, ≈24 °C), the “equilibrium force Feq” value was 46 ± 7 pN. In the assay with human C5aR (C5aR^WT) [2] (ligand-derivatized AFM tip, 20 mM HEPES, 300 mM NaCl, ≈24 °C), the “residence time τ0.5” value was 0.6 ms. Moreover, the “sum of binding free energy of both sites measured individually, ΔGbu (binding site+effector site)” value in the assay on human C5aR (C5aR^WT) [3] is around -8.6 ± 2.3 kcal/mol. In addition, in the assay on C5aR2, the “C5a binding to C5aR2 upon mutation of three N-terminal tyrosine residues” value was “did not significantly change C5a binding to C5aR2”, the “G-protein coupling at C5aR2” value is reported as “without any detectable G-protein coupling” and the “β arrestins (βarr) recruitment at C5aR2” value was “robust β arrestins (βarr) recruitment”.
